Measured values published in PMC10498682, “Selection of optimised ligands by fluorescence-activated bead sorting†”.

B1: MinE07UC-Biotin (structured_RNA)
RNA: GGAUUUAAUCGCCGUAGAAAAGCAUGUCAAAGCCGGAACCGUCC
modifications: 2'-F on all C and U; 5-vinyl-U at 4,27 (U1,U7); 5-phenyl-U at 25 (U6); lacks 5' GGAC
B2: MinE07UA-Biotin (structured_RNA)
RNA: CGGAUUUAAUCGCCGUAGAAAAGCAUGUCAAAGCCGGAACCGUCC
modifications: 2'-F on all C and U; 5-phenyl-U at 6,7,43 (U2,U3,U8); 5-iodo-U at 16 (U5); lacks 5' GGA

These binders were tested against EGFR extracellular domain, Fc fusion (EGFR-Fc) (UniProt P00533 25-644) (assay: ELISA-type plate assay; EGFR-Fc on protein A 96-well plates, biotinylated aptamer, streptavidin-AP chemiluminescence, n = 3; buffer, salt, pH and temperature not in the material). Conditions: protein: recombinant; tags: Fc; chain copies: 2; label: 5'-biotin; single strand.

Point of comparison: B1, Kd 1.23 ± 0.1 nM. Against it:
- GGACGGAUUUAAUCGCCGUAGAAAAGCAUGUCAAAGCCGGAACCGUCC (structured_RNA, 2'-F on all C and U; 5-phenyl on all 8 U (8,9,10,13,19,29,31,46)) [MinE07-U-Ph-Biotin] — 2.9-fold higher, 3.59 ± 0.82 nM
- GGACGGAUUUAAUCGCCGUAGAAAAGCAUGUCAAAGCCGGAACCGUCC (structured_RNA, 2'-F on all C and U; 5-vinyl-U at 8,31 (U1,U7); 5-phenyl-U at 29 (U6)) [MinE07UC'-Biotin] — within error, 1.11 ± 0.45 nM
- GGACGGAUUUAAUCGCCGUAGAAAAGCAUGUCAAAGCCGGAACCGUCC (structured_RNA, 2'-F on all C and U; 5-phenyl-U at 9,10,46 (U2,U3,U8); 5-iodo-U at 19 (U5)) [MinE07UA'-Biotin] — 2.8-fold higher, 3.39 ± 0.71 nM
- GGACGGAUUUAAUCGCCGUAGAAAAGCAUGUCAAAGCCGGAACCGUCC (structured_RNA, 2'-F on all C and U; 5-iodo on all 8 U (8,9,10,13,19,29,31,46)) [MinE07-U-I-Biotin] — 1.7-fold higher, 2.05 ± 0.26 nM
- GGACGGAUUUAAUCGCCGUAGAAAAGCAUGUCAAAGCCGGAACCGUCC (structured_RNA, 2'-F on all C and U; 5-phenyl-U at 9,10,19 (U2,U3,U5); 5-iodo-U at 13 (U4)) [MinE07UB-Biotin] — within error, 1.47 ± 0.54 nM
- GGACGGAUUUAAUCGCCGUAGAAAAGCAUGUCAAAGCCGGAACCGUCC (structured_RNA, 2'-F on all C and U; 5-vinyl on all 8 U (8,9,10,13,19,29,31,46)) [MinE07-U-Vi-Biotin] — 3.8-fold higher, 4.62 ± 0.48 nM
- B2 — within 1.5-fold, 1.53 ± 0.13 nM

Same assay, conditions: protein: recombinant; tags: Fc; chain copies: 2; label: 5'-biotin; single strand; 5' and 3' ends base pair, three loops (predicted)

For GGACGGAUUUAAUCGCCGUAGAAAAGCAUGUCAAAGCCGGAACCGUCC (structured_RNA, 2'-F on all C and U; A and G ribo) [MinE07-Biotin], the Kd was 3.7 ± 0.38 nM.
